Assays:
[1] = system: WT mice; experiment: WT (control) mice treated with PEG-ADA or PSB1115 for 8 weeks; type: in vivo, mouse; details: chronic PEG-ADA enzyme therapy
Description: Mice. Berkley sickle cell disease transgenic mice (SCD Tg mice), expressing exclusively human sickle hemoglobin (HbS) were purchased from The Jackson Laboratory Inc (Paszty, C. Transgenic and gene knock-out mouse models of sickle cell anemia and the thalassemias. Curr Opin Hematol 4, 88-93, 1997). C57BL/6 mice used as controls were purchased from Harlan Laboratories. Adenosine receptor deficient mice were obtained from the following sources: A1R-deficient mice (Jurgen Schnermann, NIDDK, NIH); A2AR-deficient mice (Jiang-Fan Chen, Boston University School of Medicine); A2BR-deficient mice (Michael R. Blackburn, University of Texas-Houston Medical School); and A3R-deficient mice (Marlene Jacobson, Merck Research Laboratories). […]
Mouse organ isolation and histological analysis. Mice were anesthetized and body weight was determined. […] Semiquantification of histological changes was analyzed by Image-Plus, Pro software.

[2] = system: SCD Tg mice; experiment: Life span of RBCs in SCD Tg mice (in vivo biotin labelling); set-up: species or system mouse
Description: Measurement of life span of RBCs in SCD Tg mice. SCD Tg mice were treated with or without PEG ? ADA (2.5 unit/week) for 8 weeks. At 6 week-treatment, RBCs were labeled in vivo by using N-hydroxysuccinimide (NHS) biotin and the life span of circulating red blood cells was measured as described (Perumbeti, et al. A novel human gamma-globin gene vector for genetic correction of sickle cell anemia in a humanized sickle mouse model: critical determinants for successful correction. Blood. 2009; 114(6):1174-1185).
Specifically, 50 mg/kg of NHS biotin was injected into the retro-orbital plexus of SCD Tg mice (prepared in 100 μl sterile saline just prior to injection; initially dissolved at 50 mg/ml in N,—N,-dimethylacetamide) Blood samples (only 5 μl) were collected after first day of biotin-injection from tail vein by venipuncture to determine the percentage of RBCs labeled with biotin. Subsequently, 5 μl of blood were obtained by tail vein every 3 days for measurement of biotinylated RBCs until the 10th day. The percentage of biotinylated RBCs was calculated by determining the fraction of peripheral blood cells labeled with Ter-119 (to identify RBCs) that were also labeled with a streptavidin-conjugated fluorochrome by flow cytometry.

B1: PEG-ADA: polyethylene glycol-modified adenosine deaminase, a drug used to lower adenosine concentrations in ADA-deficient humans (protein, UniProt P56658 2-363, looked up)
Adenosine deaminase: AQTPAFNKPKVELHVHLDGAIKPETILYYGRKRGIALPADTPEELQNIIGMDKPLSLPEFLAKFDYYMPAIAGCREAVKRIAYEFVEMKAKDGVVYVEVRYSPHLLANSKVEPIPWNQAEGDLTPDEVVSLVNQGLQEGERDFGVKVRSILCCMRHQPSWSSEVVELCKKYREQTVVAIDLAGDETIEGSSLFPGHVKAYAEAVKSGVHRTVHAGEVGSANVVKEAVDTLKTERLGHGYHTLEDATLYNRLRQENMHFEVCPWSSYLTGAWKPDTEHPVVRFKNDQVNYSLNTDDPLIFKSTLDTDYQMTKNEMGFTEEEFKRLNINAAKSSFLPEDEKKELLDLLYKAYGMPSPASAEQCL
modifications: PEGylated
effect on kidney histology of control mice [1]: no significant effect | fold increase of half-life of RBCs ([2]; chronic treatment vs untreated): 2 fold | half-life of RBCs ([2]; chronic treatment, untreated 2 days): 96 h

Source: patent publication US20120134979A1, “METHODS AND COMPOSITIONS FOR THE TREATMENT OF SICKLE CELL DISEASE” (priority 2010, published 2012)
